Assay results reported in the DeepSol protein solubility set.

assay: soluble on expression in E. coli; label from the status in PepcDB or PDB records

Sequence | soluble on expression in E. coli
MGSDKIHHHHHHAQFKKFNLGKAIQAGKDAAQAISLSDADIAAMSKEYMEWMDKHNPLTKPDSEYGKRLERLTGNIKEVDGMKVNFGVYEVVDVNAFACGDGSVRICAGLMDVMTDEEVMAVIGHEIGHVIHTDSKDAMKNAYFRSAVKNAAGAASSQVAKLTDSELGAMAEALAGAQYSQKQEYEADAYGVEFCVKNNIDPYGMYKSLNKLLELSNGAPASSYMQRMFSSHPDTAKRVARAKELADKYKQ | not soluble
MTIASITLTNNRLEWQSLLPNTTPYEALFATASQLEPVAFSAYQPRLENGMTLFCHPQSQPRFMLIKAQESTDYLALIAQAVKALQPEASNLLGGDYLVHGHHVTWQSAQHGDERFAAQSTCLYQEWVEPEQLFGCVRMYKDQITLQPGLVHQVNGGVLILSVRALQAQPLMWLRLKQMIVQQRFDWLSTDETRPLPVHIPSMPLDLRLILVGDRLGLADFHDMEPELGDLAIYGEFEAELPLVDIEGMALWCGYINTLLQQKQLPALSADAWPVLFRQAVRYSGDQGSLPLCPQWLTQQLAEAALYAENDTISANALEAALNARNWRQNYLAERMQDEIELGQILVETEGHVVGQINALSVLEYPGHPHAFGEPARISCVVHLGDGEFVDVERKAELGGNIHAKGMMIMQAFLMSELELDQPLPFSASIVFEQSYGEVDGDSASLAELCALVSALSQQPINQQIAVTGSVDQFGNVQPIGGVNEKIEGFFETCQRRGLTGNQGVILPTTNVRHLCLNQAVVEAVQKGQFHLWAVDTVAEALPLLTGVTYDDEQQPSLLGAIQERIAQINPQDKRRWPWPLRWLNWFNQG | soluble
MTELARLKFYATQPHSCSYLPDEQATTLFLDPSQPMDVHVYADLSEMGFRRSGDHLYRPHCQNCNACVPARIPATQFLPSRQQKRIIKRNSDLTVHAAKPCFSEEYFDLYQRYIEQRHADGDMFPPSRDQFSTFLVRDLPFSRFYEFRLDGRLLAVAVTDLLPNGLSAVYTFYEPDEERRSLGRFAILWQIGETLRLGLDAVYLGYWIKNCKKMNYKTQYRPIELLVNQRWVILNLEHHHHHH | not soluble
MARTAAALHILVKHKEQADDILAQLKKGAKFHVLAKKYSTCPSGKKGGDLGEFRQGQMVPAFDKACFQGEVLTPQLVKTKFGWHVVKVLYRT | not soluble
MRLFFSLLILLSFFARATEPVQVFTDDLGRKVTVPAHPKRIVSLHDLDITIPLIELGVPPVASHGRTRPDGSHFIRSGALLTGVDFDNSSIAFIGTADIDIEAIVAAKPDLIITEPTRNTPIERLEKIAPTVSIDHLKGGAPEIYRKLAELTGTQSQLAILERRYQAQINALKATLDSQKITVSVIQANQGKINVMHSYHSLGRVLRDAGFRFPPLIESIPEGGRMDVSAERLPELDADFVFATWRGDTGGKPQDELAAMEKVMPGWCQFLTACRSGRYVLISREEAISNSFASLGLMAAQIQSQIAGRPLPEAK | soluble
LGFLPKEKKDKIKRFIKYEDALMSLTAEILIRAVVCSKLGIKNESVKFNRTTYGKPYLEGYDDFHFNLSHSGSWVVCAVSSKPVGIDIEKIREVDLDIAKRFFSKEEASDLFAKEDNEKTEYFFELWTLKESYIKADGRGLSLPLNSFFFRIENDNVIFVSESEKKKFFFKRYDIDKGYKLAVCSMESHFPEDVEIKSFEEVCKFLCER | not soluble
VRQKGIDIIFMLDISNSMLARDTAPDRLTHAKTELLQISRRLGDGRKALLLFAGTPVVQCPLTDDEEDFEILLDMAAPELITTQGTDYRRAFDAALKLTNSGGELSSNETVLVLASDGEDHGNDLGDIATAMKTRGVHLHVIGVGGVQPVPIPMQGGPKRDQQGKIVLTSFKPEPLASLIKTAKGKFYYSRPDAPVHDAVADDIAAEAAEA | not soluble
MGSDKIHHHHHHMGACQPNNSQLYIGIDGGGSKCRATIYTAEHQKLGTGVAGRANPLHGLEQTFLSITESTQLAIADAGLAPSTSQQLIAGIGLAGVNVSHYYQHIVNWQHPFKAMYLTTDLHTACIGAHNGEDGAVIITGTGSCGYAHVGDNTICLGGHGFALGDKGSGAWLGLKAVEHVLLALDGFACATSLTERLLSHFNALDAMGIVEQLAGQSSSAYAKLARSVLACAQEGDAVAISIVKEGAEYICKLARKLFAVNPSRFSMIGGLVEPLYPWLDEDVAKRISPALTPPEFGAFLFARKQFNTKA | not soluble
MMVDTGVDHRAVSSHDGPDAGRRVFGAADPRFACVVRAFASMFPGRRFGGGALAVYLDGQPVVDVWKGWADRAGWVPWSADSAPMVFSATKGMTATVIHRLADRGLIDYEAPVAEYWPAFGANGKATLTVRDVMRHQAGLSGLRGATQQDLLDHVVMEERLAAAVPGRLLGKSAYHALTFGWLMSGLARAVTGKDMRLLFREELAEPLDTDGLHLGRPPADAPTRVAEIIMPQDIAANAVLTCAMRRLAHRFSGGFRSMYFPGAIAAVQGEAPLLDAEIPAANGVATARALARMYGAIANGGEIDGIRFLSRELVTGLTRNRRQVLPDRNLLVPLNFHLGYHGMPIGNVMPGFGHVGLGGSIGWTDPETGVAFALVHNRLLSPLEHHHHHH | not soluble
MNEVLELKEELLQIKNNNYAVPEDVDAYPYAQWMLDYIGSPDAELRDDLIYSTLHTWITNDVFRQKELRGLMLQAISPDYLFYKIGEKGTDSVFKRAFSVLIPPLILSVHEREPLLSEEQLYSVAEQVLEYVYLEEDVRGYVEGKGWAHSTAHAADALDALARTIQNREFSYAILAAVRQKVRLSDYVYVHFEDERLVKPIMSLHNQKLLTEEEWSNWLHSIATVEDIRHPQHAILVQNIRSFLRSLYFRVLETEGSTAFTDDILETLKGLRRY | not soluble
MGSDKIHHHHHHMTKPMHTPPLVPPQAWEAAREQLLVKEKALTRARDALAAERRQMPWMAVEKEYAFEGPEGRVSLVDLFEGRRQLIVYRAFFEPGVFGWPDHACRGCSMVADQVAHLAHLNARDTTLVFVSRAPQADIARLKARMGWQIPWFTVTDSFDADFGVDEWHGTNVFYRDGDRVFRTYFINNRGDEQMGSTWNYLDITPLGRQEVWEDSPEGYPQTPTYKWWNWHDSYVKDAEPDKKWVEVSDAGEAAFRNQD | not soluble
MGSDKIHHHHHHMDSLLMNRRKFLYQFKNVRWAKGRRETYLCYVVKRRDSATSFSLDFGYLRNKNGCHVELLFLRYISDWDLDPGRCYRVTWFTSWSPCYDCARHVADFLRGNPNLSLRIFTARLYFCEDRKAEPEGLRRLHRAGVQIAIMTFKDYFYCWNTFVENHERTFKAWEGLHENSVRLSRQLRRILLPLYEVDDLRDAFRTLGL | not soluble
MYLPIFCIFLSVVDSLRILQIVPGFTNSHVLFNYRLAETLRFLGHDVKMWTQMEMAMLDTGNNKLPEGVSEYRIPIHFTDTLKTEGLKVFQSMMFESGDAHDLWWTGQEFKDMRVEACEQMLRHDESVYEDFRKDGFDVAIAHFHDLCPLAIAKKMNVKRVIWITHGTSIYEFSAVQLGLRTIPSTIPHPLSSAGFSQLFLDRVQNTLWHLSLLDFVNLPQNLLVDENLFYREFVGADQDDLWDLAKTTVPSLLINGDRMLDFPRPLPIHIAFSGELGVSKGKKLVMEKWLEDIIEKPSDGLIVFSLGTVSNTTNMPAQMINSFLGAFGKLKTYTILWRMEKSVAGAEKYENLHLVKWLPQKDIMRHPKMKLMIAHGGYNSFLEAAQAGIPAVLMPLFADQKINAKRAQRYGMATVLDKLDLTINNVYGAIKEALKPEYSTNAKKLSAMLSDQVARKPYSALRYSLKLATSPKPSLFTLKSQHLSFLEFHNLDIFSIVLLTAFIVCF | not soluble
MLHTTQLYQHVPETRWPIVYSPRYNITFMGLEKLHPFDAGKWGKVINFLKEEKLLSDSMLVEAREASEEDLLVVHTRRYLNELKWSFAVATITEIPPVIFLPNFLVQRKVLRPLRTQTGGTIMAGKLAVERGWAINVGGGFHHCSSDRGGGFCAYADITLAIKFLFERVEGISRATIIDLDAHQGNGHERDFMDDKRVYIMDVYNRHIYPGDRFAKQAIRRKVELEWGTEDDEYLDKVERNIKKSLQEHLPDVVVYNAGTDILEGDRLGGLSISPAGIVKRDELVFRMVRGRRVPILMVTSGGYQKRTARIIADSILNLFGLGLIGPESPSVSAQNSDTPLLPPAVP | soluble
MSLASTIMSQEVSWTDILEKHPALRWIKPIPEDWEIFPKHLCAFESFLYVAVGQEVRSLDCRLLKHKNEASHKNFYKKLFNPELDFMIEQICLSKNGRFLAVVGKSKIVILGLRSKLSEQNPLAESVSNFGESVNNFSNSEHQENGTNSLKLSEVTICSVAVINPSSQIVSVRFHPLGKSGRSLVVLTETSLLLYEAGNGVLMPDYEIPLKLTHQASNSFDADVDLHIPTAFCFSNVSQGWGVFTIYILTRGGDVFSVCPVMPANAMIPQDVLKQIRLILTKKEDDADAENHRRNVHWITKLLGEAALANDLSTSEGHHHHHH | soluble
MATAHYHGSCQCGSVSFEVDADLDHTVICNCSRCKRLGSTLAFAPREKFTLLSGEDKLSEYLFNKHKIHHFFCSTCGIESFAYADGPDGTPMVAVNANCLDGVDPRALKSQAFDGAA | not soluble
MTTCLLDIDQQQSVLGAGYHEPRAYSPYGGMRVVPVSALAFCGQHLDPLTGSYPLGNGHRFYRPSLRRFISPDVLSPFGKGGLNAYAYCQGDPVNFADPSGRFPAIIAPVRNLVTGVINLGISAVKMYRNYRTGRDFALNSGYPASRSGVFTYGTSEHAVARWSVADKVVSAAGGISASLSIGTATARLITPESEVLAWVDFGVASFATVLSAYELYGLATSSAERRYPIQPVAYEIRTGVQPLEHHHHHH | soluble
SSLCERAASGSALLWPRVLLFGDSITQFSFQQGGWGSLLADRLVRKCDVLNRGFSGYNTRWAKIILPRLIRKGPGMENPVAVTIFFGANDSSLKDENPKQHVPLDEYSANLRDMVQYLRSVDVPRERVILITPPPLCEAAWEKECVLKGCKLNRLNSVVGEYANACLQVARDCGTDVLDLWTLMQKDSQDFSSYLSDGLHLSPMGNEFLFLNLCPLLDKKVSSLPWLLPYWKDVEEAKPELSLLGDGDY | soluble
MEELVGLLRIRVKRGINLAQRDTLSSDPFVVITMGSQKLKTRVVENNCNPEWNEELTLALRHPDEPVNLIVYDKDTFTSHDKMGDAKIDIKPFLEVHKMGLQELPDGTEIKRVVPNRENCLAEASSIVSNNGKIVQNMILLLRNVECGEVEIQLEWIDIPGSRGL | not soluble
MFSKKKDKFMVQLEEMVFNLDRAAIEFGKMDFNTHLDLKAYSDNIKTYESHGDELMHQVISDLNQTFITPIEREDILSLCNAIDDVLDAMEETSAMFEMYSIEYTDEYMAEFVENIQKAVAEMKLAVGLLVDKKLSHMRIHSINIKEFETNCDGILRQSMKHIFNSETDPITLIKIKDIYQSMEEIADKCQAVANNFETIIMKNSLEHHHHHH | soluble
MSKLTAAYNKTRECVVTRSKIMMGYPEARYPTIPKILKKTADFQKLEGSKDRIAFTLSQEPIADKKCTEMIKNVLLEQFQDTDIPANYIAVSMALPNFKIGQNCHDFQPLDWYKNIKGYFTYKKITEQVQAAYFNDEAGNQFLAGVCYYATPAGKWVAKLQTEQTLLRFEFQKAEPFPLNSKSRFDTKAFKKFARYGRYCETEGCRVLVWVGKADGQIVHLNYHPVYCMQWTKGCAECAKDHFEYMWIAPEEPVVQKSKEEDYILKAPEDKDLSDFDQLSDVLNVDAISLH | not soluble
MQSETTSKHTDILTSLQLSLTPRRDPTFEETTTDEQTSVQIALSPCLNATIASSKYSLDDLDVSAQYLWDTAADNLIYTTSNAREIPIRTRPTTFLTKRMTEGLQVDVTGAPTSAWIAHPLTFEVIYHHLANILCATPVFYVPHPQLLIAVASHIVSPQLESWLSTFSTPLVKDALIYHEGFPAHIKSSAWQQPLHHMSSDQLSA | not soluble
MGDILMHYVRKAHEHEVNEVVKYPHTITNTELEEILVSGEECTVLDVREAAEFAFGHIPSATSMPLGELESLVLDKTKQIYVVCRTGNRSDVACQMLKEKGYTNVKNVIPGMIEWQGNIENLEHHHHHH | not soluble
